The target in the assay is GST–XJTGB3 fusion protein (BSMV Xinjiang strain TGB3) (barley stripe mosaic virus, Xinjiang strain). The assay is described as follows: pull-down.

As for “XJTGB1_(T395A/T401A) double mutant, C-terminal His-tagged (natural protein)”, the TGB3 protein-binding efficiency compared with wt XJTGB1 was found to be 40% and the percent less effective binding than wt XJTGB1 turned out to be 40 % less.

Source of the values: publication PMC4507770.
